{"source": "patent US5501962", "about": "“Interleuken-3 (IL-3) human/murine hybrid polypeptides and recombinant production of the same” (G. D. Searle & Co., dated 1996)", "binders": {"B1": {"name": "pMON5968 (Met-15-125hIL-3) having an M13 substitution (ligand)", "chain": "MNCSNMIDEIITHLKQPPLPLLDFNNLNGEDQDILMENNLRRPNLEAFNRAVKSLQNASAIESILKNLLPCLPLATAAPTRHPIHIKDLDEFRRKLTFYLKTLENAQAQQ"}, "B2": {"name": "pMON5974 (Met-15-125hIL-3 del aa29-35) having the M2 deletion shown in FIG. 19 (ligand)", "chain": "MNCSNMIDEIITHLKDFNNLNGEDQDILMENNLRRPNLEAFNRAVKSLQNASAIESILKNLLPCLPLATAAPTRHPIHIKDGDWNEFRRKLTFYLKTLENAQAQQ"}, "B3": {"name": "pMON5980 (Met-Ala-15-125hIL-3) having an M1 substitution (ligand)", "chain": "MANCSSIVKEIIGKLPQPPLPLLDFNNLNGEDQDILMENNLRRPNLEAFNRAVKSLQNASAIESILKNLLPCLPLATAAPTRHPIHIKDGDWNEFRRKLTFYLKTLENAQAQQ"}, "B4": {"name": "(1-133)hIL-3 (ligand)", "chain": "APMTQTTSLKTSWVNCSNMIDEIITHLKQPPLPLLDFNNLNGEDQDILMENNLRRPNLEAFNRAVKSLQNASAIESILKNLLPCLPLATAAPTRHPIHIKDGDWNEFRRKLTFYLKTLENAQAQQTTLSLAIF"}, "B5": {"name": "pMON5977 (Met-15-125hIL-3) having an M3 substitution (ligand)", "chain": "MNCSNMIDEIITHLKQPPLPLLEPELKNGEDQDILMENNLRRPNLEAFNRAVKSLQNASAIESILKNLLPCLPLATAAPTRHPIHIKDGDWNEFRRKLTFYLKTLENAQAQQ"}, "B6": {"name": "pMON5962 (Met-15-125hIL-3) having an M10 substitution (ligand)", "chain": "B5 chain with E23D, P24F, E25N, L26N, K27L, L74T, A75S, T76A, A77N, A78D"}, "B7": {"name": "pMON5970 (Met-15-125hIL-3) having an M5 substitution (ligand)", "chain": "B5 chain with E23D, P24F, E25N, L26N, K27L, I34S, M36R, E37N, N38K, N39S"}, "B8": {"name": "pMON5963 (Met-15-125hIL-3 Ala 101) having an M9 substitution (ligand)", "chain": "MNCSNMIDEIITHLKQPPLPLLDFNNLNGEDQDILMENNLRRPNLEAFNRAVKSLQNASAIKSNLQKLNSCLPLATAAPTRHPIHIKAGDWNEFRRKLTFYLKTLENAQAQQ"}, "B9": {"name": "pMON5972 (Met-15-125hIL-3) having an M6 substitution (ligand)", "chain": "MNCSNMIDEIITHLKQPPLPLLDFNNLNGEDQDILMENNFRRVNLSKFVEAVKSLQNASAIESILKNLLPCLPLATAAPTRHPIHIKDGDWNEFRRKLTFYLKTLENAQAQQ"}, "B10": {"name": "pMON5961 (Met-15-125hIL-3) having an M12 substitution (ligand)", "chain": "B5 chain with E23D, P24F, E25N, L26N, K27L, P83G, I84V, H85F, K87R"}, "B11": {"name": "pMON5960 (Met-15-125hIL-3) having an M11 substitution (ligand)", "chain": "B5 chain with E23D, P24F, E25N, L26N, K27L, P79S, T80A, R81L, H82P"}, "B12": {"name": "pMON5975 (Met-15-125hIL-3) having an M4 substitution (ligand)", "chain": "MNCSNMIDEIITHLKQPPLPLLDFNNLTDDEGPILMENNLRRPNLEAFNRAVKSLQNASAIESILKNLLPCLPLATAAPTRHPIHIKDGDWNEFRRKLTFYLKTLENAQAQQ"}, "B13": {"name": "pMON5979 (Met-15-125hIL-3 ALA 101) having an M8 substitution (ligand)", "chain": "MNCSNMIDEIITHLKQPPLPLLDFNNLNGEDQDILMENNLRRPNLEAFNRAVKSLQPEDRYVIESILKNLLPCLPLATAAPTRHPIHIKAGDWNEFRRKLTFYLKTLENAQAQQ"}, "B14": {"name": "pMON5973 (Met-15-125hIL-3) having an M7 substitution (ligand)", "chain": "MNCSNMIDEIITHLKQPPLPLLDFNNLNGEDQDILMENNLRRPNLEAFNRSQGEVDNASAIESILKNLLPCLPLATAAPTRHPIHIKDGDWNEFRRKLTFYLKTLENAQAQQ"}}, "note": "Numbering of substitutions follows the chain as printed.", "data": [{"target": "IL-3 receptor (human) (UniProt P26951)", "test": "not given", "values": [{"binder": "B1", "Growth Factor Activity (AML 193 1.3 proliferation, 3H-thymidine; Relative Biological Activity) (relative to native hIL-3)": 0.06, "Leukotriene Stimulating Activity (IL-3 mediated sulfidoleukotriene release from human mononuclear cells; Relative Biological Activity) (relative to native hIL-3)": 0.59}, {"binder": "B2", "Growth Factor Activity (AML 193 1.3 proliferation, 3H-thymidine; Relative Biological Activity) (relative to native hIL-3)": 0.08, "Leukotriene Stimulating Activity (IL-3 mediated sulfidoleukotriene release from human mononuclear cells; Relative Biological Activity) (relative to native hIL-3)": "< 0.01"}, {"binder": "B3", "Growth Factor Activity (AML 193 1.3 proliferation, 3H-thymidine; Relative Biological Activity) (relative to native hIL-3)": 0.03, "Leukotriene Stimulating Activity (IL-3 mediated sulfidoleukotriene release from human mononuclear cells; Relative Biological Activity) (relative to native hIL-3)": "< 0.01"}, {"binder": "B4", "Growth Factor Activity (AML 193 1.3 proliferation, 3H-thymidine; Relative Biological Activity) (relative to native hIL-3)": 1, "Leukotriene Stimulating Activity (IL-3 mediated sulfidoleukotriene release from human mononuclear cells; Relative Biological Activity) (relative to native hIL-3)": 1}, {"binder": "B5", "Growth Factor Activity (AML 193 1.3 proliferation, 3H-thymidine; Relative Biological Activity) (relative to native hIL-3)": 3.98, "Leukotriene Stimulating Activity (IL-3 mediated sulfidoleukotriene release from human mononuclear cells; Relative Biological Activity) (relative to native hIL-3)": 0.31}, {"binder": "B6", "Growth Factor Activity (AML 193 1.3 proliferation, 3H-thymidine; Relative Biological Activity) (relative to native hIL-3)": 1.26, "Leukotriene Stimulating Activity (IL-3 mediated sulfidoleukotriene release from human mononuclear cells; Relative Biological Activity) (relative to native hIL-3)": 10.7}, {"binder": "B7", "Growth Factor Activity (AML 193 1.3 proliferation, 3H-thymidine; Relative Biological Activity) (relative to native hIL-3)": 0.04, "Leukotriene Stimulating Activity (IL-3 mediated sulfidoleukotriene release from human mononuclear cells; Relative Biological Activity) (relative to native hIL-3)": "< 0.01"}, {"binder": "B8", "Growth Factor Activity (AML 193 1.3 proliferation, 3H-thymidine; Relative Biological Activity) (relative to native hIL-3)": 5.01, "Leukotriene Stimulating Activity (IL-3 mediated sulfidoleukotriene release from human mononuclear cells; Relative Biological Activity) (relative to native hIL-3)": 12.9}, {"binder": "B9", "Growth Factor Activity (AML 193 1.3 proliferation, 3H-thymidine; Relative Biological Activity) (relative to native hIL-3)": 0.2, "Leukotriene Stimulating Activity (IL-3 mediated sulfidoleukotriene release from human mononuclear cells; Relative Biological Activity) (relative to native hIL-3)": 0.15}, {"binder": "B10", "Growth Factor Activity (AML 193 1.3 proliferation, 3H-thymidine; Relative Biological Activity) (relative to native hIL-3)": 0.5, "Leukotriene Stimulating Activity (IL-3 mediated sulfidoleukotriene release from human mononuclear cells; Relative Biological Activity) (relative to native hIL-3)": 3.63}, {"binder": "B11", "Growth Factor Activity (AML 193 1.3 proliferation, 3H-thymidine; Relative Biological Activity) (relative to native hIL-3)": 0.13, "Leukotriene Stimulating Activity (IL-3 mediated sulfidoleukotriene release from human mononuclear cells; Relative Biological Activity) (relative to native hIL-3)": 0.1}, {"binder": "B12", "Growth Factor Activity (AML 193 1.3 proliferation, 3H-thymidine; Relative Biological Activity) (relative to native hIL-3)": 0.04, "Leukotriene Stimulating Activity (IL-3 mediated sulfidoleukotriene release from human mononuclear cells; Relative Biological Activity) (relative to native hIL-3)": "< 0.01"}, {"binder": "B13", "Growth Factor Activity (AML 193 1.3 proliferation, 3H-thymidine; Relative Biological Activity) (relative to native hIL-3)": 7.94, "Leukotriene Stimulating Activity (IL-3 mediated sulfidoleukotriene release from human mononuclear cells; Relative Biological Activity) (relative to native hIL-3)": 0.46}]}, {"target": "T1, IL-3 receptor (human, UniProt P26951)", "T1 sequence": "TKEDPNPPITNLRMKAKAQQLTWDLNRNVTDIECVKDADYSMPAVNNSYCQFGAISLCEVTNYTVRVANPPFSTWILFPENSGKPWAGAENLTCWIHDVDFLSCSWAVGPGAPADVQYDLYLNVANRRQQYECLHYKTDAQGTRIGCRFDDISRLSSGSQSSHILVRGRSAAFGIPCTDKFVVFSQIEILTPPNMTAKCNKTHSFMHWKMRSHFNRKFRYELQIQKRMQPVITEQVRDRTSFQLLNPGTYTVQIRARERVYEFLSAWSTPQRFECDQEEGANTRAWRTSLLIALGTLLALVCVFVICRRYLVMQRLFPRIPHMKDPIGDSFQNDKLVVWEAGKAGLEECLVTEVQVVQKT", "test": "cell-based or functional assay", "values": [{"binder": "B14", "Growth Factor Activity (AML 193 1.3 proliferation, 3H-thymidine; Relative Biological Activity)": "0.2 relative to native hIL-3", "Leukotriene Stimulating Activity (IL-3 mediated sulfidoleukotriene release from human mononuclear cells; Relative Biological Activity)": "≤ 0.01 relative to native hIL-3"}]}, {"target": "IL-3 receptor (human) (UniProt P26951)", "test": "competition with iodinated hIL-3 ligand (pMON 5966) on AML 193 1.3.9 cells; this is the reference itself", "values": [{"binder": "B4", "IL-3 Receptor Binding Activity (relative to native hIL-3) (relative to native hIL-3)": 1}]}, {"target": "T1, IL-3 receptor", "test": "competition with iodinated hIL-3 ligand (pMON 5966) on AML 193 1.3.9 cells", "experimental": "These cells were further selected using biotin conjugated hIL-3 and FITC-avidin for repetitive fluorescence activated cell sorting (FACS) and were designated AML 193 1.3.9. This line was grown in IMDM supplemented with 5% FBS and 40 μM beta-mercaptoethanol and human IL-3 (1 to 4 ng/mL). The HL-60 cell line was obtained from ATCC and grown in RPMI 1640, 10% FBS and 40 μM beta-mercaptoethanol. Ligand for IL-3 receptor assays was derived from an E. coli expression vector encoding full length hIL-3 molecule (amino acids 1 to 133) having a 14 amino acid N-terminal extension. ([…][SEQ ID NO: 119]; designated as pMON 5966, est. MW 16,976). This construct contained two additional tyrosines which were essential for iodination to high-specific radioactivity without loss of biological activity. This ligand was radiolabeled with iodine-125 using an insoluble lactoperoxidase method (®Enzymobeads) and used following HPLC purification. […] Ligand for GM-CSF receptor assays was prepared by radiolabelling native GM-CSF with iodine-125 using the IODO-GEN method (Pierce Chemical) according to manufacturer's specifications.\nFor IL-3 receptor assays, AML 193 1.3.9 cells were incubated overnight in medium without growth factor. On the day of the assay the cells were washed 3 times with Hanks balanced salt solution, resuspended in assay buffer (IMDM, 5% FBS, 40 μM 2-ME and 0.1% BSA) and counted using a hemacytometer. Assay tubes contained the test compounds or inhibitors under study, 0.2% sodium azide, iodinated hIL-3 ligand (pMON 5966), 5–10×10^6 cells, and buffer in a total volume of 100 μL. Unlabelled hIL-3 (250 nM) was used to define non-specific binding, and each assay point was set up in triplicate. After incubation with gentle orbital agitation at 200 rpm for two hours at room temperature, 1 mL of ice-cold medium was added and the binding reaction was immediately terminated by centrifugation. The supernatant was removed by aspiration, and the tip of the tube containing the cell pellet was cut off and counted in a Micromedic gamma counter.", "values": [{"binder": "B1", "IL-3 Receptor Binding Activity (relative to native hIL-3)": "0.25 relative to native hIL-3"}, {"binder": "B2", "IL-3 Receptor Binding Activity (relative to native hIL-3)": "≤ 0.01 relative to native hIL-3", "binding result": "no binding"}, {"binder": "B13", "IL-3 Receptor Binding Activity (relative to native hIL-3)": "1.21 relative to native hIL-3"}]}, {"target": "IL-3 receptor (human) (UniProt P26951)", "test": "competition with iodinated hIL-3 ligand (pMON 5966) on AML 193 1.3.9 cells", "values": [{"binder": "B3", "IL-3 Receptor Binding Activity (relative to native hIL-3) (relative to native hIL-3)": "< 0.01"}, {"binder": "B5", "IL-3 Receptor Binding Activity (relative to native hIL-3) (relative to native hIL-3)": 0.19}, {"binder": "B6", "IL-3 Receptor Binding Activity (relative to native hIL-3) (relative to native hIL-3)": 0.81}, {"binder": "B7", "IL-3 Receptor Binding Activity (relative to native hIL-3) (relative to native hIL-3)": "< 0.01"}, {"binder": "B8", "IL-3 Receptor Binding Activity (relative to native hIL-3) (relative to native hIL-3)": 1.32}, {"binder": "B9", "IL-3 Receptor Binding Activity (relative to native hIL-3) (relative to native hIL-3)": 0.08}, {"binder": "B10", "IL-3 Receptor Binding Activity (relative to native hIL-3) (relative to native hIL-3)": 1.05}, {"binder": "B11", "IL-3 Receptor Binding Activity (relative to native hIL-3) (relative to native hIL-3)": "< 0.01"}, {"binder": "B12", "IL-3 Receptor Binding Activity (relative to native hIL-3) (relative to native hIL-3)": "< 0.01"}]}]}
